Experimental data published in publication PMC12248280.

Target: hDPP4-Fc (human DPP4 residues 39 to 766 fused at its C terminus to the Fc domain of human IgG) (human) (UniProt P27487)
Test: BLI

Chain of UniProt P27487 (P27487 39-766): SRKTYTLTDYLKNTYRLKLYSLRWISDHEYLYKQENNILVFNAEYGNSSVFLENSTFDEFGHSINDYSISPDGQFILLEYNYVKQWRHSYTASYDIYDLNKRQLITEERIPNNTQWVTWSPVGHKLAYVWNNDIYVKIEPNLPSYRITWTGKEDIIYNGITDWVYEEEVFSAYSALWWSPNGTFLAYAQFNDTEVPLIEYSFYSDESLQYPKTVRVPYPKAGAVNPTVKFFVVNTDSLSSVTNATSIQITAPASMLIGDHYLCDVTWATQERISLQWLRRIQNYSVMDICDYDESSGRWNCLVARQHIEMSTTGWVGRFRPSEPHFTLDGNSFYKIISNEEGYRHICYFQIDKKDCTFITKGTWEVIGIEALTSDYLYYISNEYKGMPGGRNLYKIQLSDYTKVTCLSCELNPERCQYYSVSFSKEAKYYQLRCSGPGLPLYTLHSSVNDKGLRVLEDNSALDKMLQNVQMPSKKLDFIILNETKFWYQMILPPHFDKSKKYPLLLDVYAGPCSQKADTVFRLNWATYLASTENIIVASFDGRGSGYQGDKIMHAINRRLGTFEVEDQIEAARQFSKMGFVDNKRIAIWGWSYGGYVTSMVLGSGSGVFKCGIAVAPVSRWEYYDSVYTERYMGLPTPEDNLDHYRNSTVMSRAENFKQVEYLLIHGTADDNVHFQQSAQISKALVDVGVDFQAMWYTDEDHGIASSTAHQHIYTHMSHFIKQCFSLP

Substance: GD-BatCoV-S (GD-BatCoV S-trimer, GD-BatCoV-S-6P) (domain or fragment)
- Kd: 5.3 nM
